Reference: article PMC11024467 (2024)

B1: IL-2Rαβγ complex (complex)
chain 1: ELCDDDPPEIPHATFKAMAYKEGTMLNCECKRGFRRIKSGSLYMLCTGNSSHSSWDNQCQCTSSATRNTTKQVTPQPEEQKERKTTEMQSPMQPVDQASLPGHCREPPPWENEATERIYHFVVGQMVYYQCVQGYRALHRGPAESVCKMTHGKTRWTQPQLICTGEMETSQFPGEEKPQASPEGRPESETSCLVTTTDFQIQTEMAATMETSIFTTEYQ
chain 2: AVNGTSQFTCFYNSRANISCVWSQDGALQDTSCQVHAWPDRRRWNQTCELLPVSQASWACNLILGAPDSQKLTTVDIVTLRVLCREGVRWRVMAIQDFKPFENLRLMAPISLQVVHVETHRCNISWEISQASHYFERHLEFEARTLSPGHTWEEAPLLTLKQKQEWICLETLTPDTQYEFQVRVKPLQGEFTTWSPWSQPLAFRTKPAALGKDT
chain 3: LNTTILTPNGNEDTTADFFLTTMPTDSLSVSTLPLPEVQCFVFNVEYMNCTWNSSSEPQPTNLTLHYWYKNSDNDKVQKCSHYLFSEEITSGCQLQKKEIHLYQTFVVQLQDPREPRRQATQMLKLQNLVIPWAPENLTLHKLSESQLELNWNNRFLNHCLEHLVQYRTDWDHSWTEQSVDYRHKFSLPSVDGQKRYTFRVRSRFNPLCGSAQHWSEWSHPIHWGSNTSKENPFLFALEA
B2: IL-2Rβγ complex (complex)
chain 1: B1 chain 2
chain 2: B1 chain 3
B3: IL-2Rα (receptor)
chain: B1 chain 1
B4: IL-2Rβ (receptor)
chain: B1 chain 2
B5: IL-2Rαβγ complex (complex)
chain 1: ELCDDDPPEIPHATFKAMAYKEGTMLNCECKRGFRRIKSGSLYMLCTGNSSHSSWDNQCQCTSSATRNTTKQVTPQPEEQKERKTTEMQSPMQPVDQASLPGHCREPPPWENEATERIYHFVVGQMVYYQCVQGYRALHRGPAESVCKMTHGKTRWTQPQLICTGEMETSQFPGEEKPQASPEGRPESETSCLVTTTDFQIQTEMAATMETSIFTTEYQVAVAGCVFLLISVLLLSGLTWQRRQRKSRRTI
chain 2: AVNGTSQFTCFYNSRANISCVWSQDGALQDTSCQVHAWPDRRRWNQTCELLPVSQASWACNLILGAPDSQKLTTVDIVTLRVLCREGVRWRVMAIQDFKPFENLRLMAPISLQVVHVETHRCNISWEISQASHYFERHLEFEARTLSPGHTWEEAPLLTLKQKQEWICLETLTPDTQYEFQVRVKPLQGEFTTWSPWSQPLAFRTKPAALGKDTIPWLGHLLVGLSGAFGFIILVYLLINCRNTGPWLKKVLKCNTPDPSKFFSQLSSEHGGDVQKWLSSPFPSSSFSPGGLAPEISPLEVLERDKVTQLLLQQDKVPEPASLSSNHSLTSCFTNQGYFFFHLPDALEIEACQVYFTYDPYSEEDPDEGVAGAPTGSSPQPLQPLSGEDDAYCTFPSRDDLLLFSPSLLGGPSPPSTAPGGSGAGEERMPPSLQERVPRDWDPQPLGPPTPGVPDLVDFQPPPELVLREAGEEVPDAGPREGVSFPWSRPPGQGEFRALNARLPLNTDAYLSLQELQGQDPTHLV
chain 3: LNTTILTPNGNEDTTADFFLTTMPTDSLSVSTLPLPEVQCFVFNVEYMNCTWNSSSEPQPTNLTLHYWYKNSDNDKVQKCSHYLFSEEITSGCQLQKKEIHLYQTFVVQLQDPREPRRQATQMLKLQNLVIPWAPENLTLHKLSESQLELNWNNRFLNHCLEHLVQYRTDWDHSWTEQSVDYRHKFSLPSVDGQKRYTFRVRSRFNPLCGSAQHWSEWSHPIHWGSNTSKENPFLFALEAVVISVGSMGLIISLLCVYFWLERTMPRIPTLKNLEDLVTEYHGNFSAWSGVSKGLAESLQPDYSERLCLVSEIPPKGGALGEGPGASPCNQHSPYWAPPCYTLKPET
B6: IL-2Rβγ complex (complex)
chain 1: B5 chain 2
chain 2: B5 chain 3

target: Wild type IL-2 (de-alanine-1, C58S, C125S) (UniProt P60568 21-153, de-alanine-1 | C58S | C125S); experiment: SPR

Kd | Binder
42.3 pM | B1
463 pM | B2
47500 pM | B3
89100 pM | B4

target: IL-2 variant 012; experiment: SPR

Kd | Binder
575 pM | B5
467 pM | B6
